Assay results published in the supplement of paper PMC12042874.
± gives the uncertainty stated by the source.

Assay: amyloid nucleation score (Sup35N fusion, yeast selection) (log enrichment); library NNK2; higher = more nucleation; inactive = no reads after selection
Method in brief: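 In psi-negative yeast, Sup35N fusions carrying peptides of 20 random codons were induced with 100 μM copper sulfate for 24 hours. The cells then grew 7 days at 30°C on medium lacking adenine and uracil, and plasmid inserts from input and output were Illumina-sequenced, excluding sequences with under 100 input reads. Nucleation score is the DiMSum log enrichment of output over input reads, centred on the mode score of non-aggregating sequences.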

GVCRDNILRENFGGWSTSRS
amyloid nucleation score: 0.15 ± 0.46

GVDFKVVTKSWIIYNYIIGM
amyloid nucleation score: 3.07 ± 0.064

GVDKKVSSTECIETVSCFIT
amyloid nucleation score: inactive

GVGVLGVLNYVCWLMQCCGL
amyloid nucleation score: 0.987 ± 0.22

GVGYPVFYWKVSMYSRDSDH
amyloid nucleation score: 3.38 ± 0.067

GVKAASGSSPKRGFYDWVKH
amyloid nucleation score: 0.307 ± 0.64

GVLNAVHCQVYWL
amyloid nucleation score: 7.869 ± 0.035

GVLRENGN
amyloid nucleation score: 0.284 ± 1.1

GVMYSLFRNSSWGGHIMSGK
amyloid nucleation score: 0.818 ± 0.67

GVNKVT
amyloid nucleation score: 0.115 ± 1

GVQETSYVALCSSLVTRTFV
amyloid nucleation score: 1.16 ± 0.44

GVSVSSLSACPKEDFGSFSE
amyloid nucleation score: 0.051 ± 0.63

GVVARSIVAGNLALIIRRRM
amyloid nucleation score: 0.253 ± 0.42

GVVISCWRLWWDTDMMHR
amyloid nucleation score: 0.007 ± 0.24

GVWIFKYCRNNWFGFLIISA
amyloid nucleation score: 3.33 ± 0.1

GVYICQFIAVISLSAQSLWY
amyloid nucleation score: -0.97 ± 1.1

GWGFFIDSYQHGLLM
amyloid nucleation score: -1.27 ± 0.54

GWMCMPAQGAKDNHLLGYLM
amyloid nucleation score: -0.533 ± 0.55

GWSITGSWFHNMAILLICFR
amyloid nucleation score: 3.38 ± 0.075

GYASTDEVMTLRMYLTSIYT
amyloid nucleation score: -0.187 ± 0.55

GYDLYLTEWRSVFTAVIANE
amyloid nucleation score: -0.055 ± 1.1

GYDNTAWELTGGVD
amyloid nucleation score: -0.311 ± 0.3

GYEWSSVSEQGC
amyloid nucleation score: 1.27 ± 0.52

GYGDGILVSFSC
amyloid nucleation score: -0.986 ± 0.76

GYIMIPRYPPSKHLCF
amyloid nucleation score: -0.545 ± 0.41

GYMRSLGHYSADVMEYLYNW
amyloid nucleation score: 0.052 ± 0.45

GYNTRKYWISGYNTTDSPGK
amyloid nucleation score: -1.13 ± 0.35

GYSLYVYIMDFFTWGNRVII
amyloid nucleation score: 2.02 ± 0.19

GYTTMRKCFAQVEFRTPADT
amyloid nucleation score: inactive

GYVFHYVSIQL
amyloid nucleation score: 7.957 ± 0.027

GYVSRDSFVLYWPSRNDCLA
amyloid nucleation score: 0.276 ± 0.22

GYYAPIPLKCVDSEASLRYR
amyloid nucleation score: 0.308 ± 0.36

HASNH
amyloid nucleation score: -0.689 ± 0.42

HAVWSVFCEFIVRQCYGLYF
amyloid nucleation score: -1.37 ± 0.41

HCGTHVYYGAIWV
amyloid nucleation score: -0.483 ± 0.27

HCGYEAIILWGVRFCGILQR
amyloid nucleation score: -0.357 ± 1.1

HCKLVFRGVMTESHSSACGG
amyloid nucleation score: 2.82 ± 0.071

HCLGRLVASWNPQWEFHRRT
amyloid nucleation score: 0.103 ± 0.38

HCSDFDLVSAKWSSQWARNG
amyloid nucleation score: 1.13 ± 0.4

HCSQNYMVTRKIFSLWIPYV
amyloid nucleation score: inactive

HCSVSLTFFVLQTPL
amyloid nucleation score: 4.79 ± 0.069

HCTDGFLMAYVSFSRGMIIM
amyloid nucleation score: inactive

HCVDLLREMQ
amyloid nucleation score: 0.621 ± 0.43

HCVIQSSYLRD
amyloid nucleation score: -0.337 ± 0.54

HCYSRPFESSSFMNSVSLKY
amyloid nucleation score: -0.149 ± 0.76

HDLKLV
amyloid nucleation score: 0.266 ± 0.41

HDMRHYKGSPYYLNYWYGDG
amyloid nucleation score: -0.623 ± 0.55

HDQGSTMFCGRNAATLSQCW
amyloid nucleation score: 1.54 ± 0.25

HEAYLPRLNDVTTSPSPCPY
amyloid nucleation score: 0.487 ± 0.62

HEHSDVRKKVGWMAFWR
amyloid nucleation score: 4.42 ± 0.06

HEVLTVHNKAFRKYLSCIFR
amyloid nucleation score: inactive

HFCYYMCFEWLDTIVAYYLG
amyloid nucleation score: -0.337 ± 1.1

HFFSSSSMRMYTSYSPLVMW
amyloid nucleation score: 0.215 ± 0.42

HFKSSKECSKWVGICREEGR
amyloid nucleation score: 0.338 ± 0.46

HFLVHFVFDLIRCVLAFVYC
amyloid nucleation score: 0.61 ± 0.12

HFRVMHSFQGQYKVIFK
amyloid nucleation score: 2.73 ± 0.098

HFSDIRAFCFPCNPIMRVMK
amyloid nucleation score: -0.406 ± 0.56

HGAVRSLSGGHIDRELVCD
amyloid nucleation score: 0.566 ± 0.74

HGGFRDFQSLSVPIRYDLYD
amyloid nucleation score: 1.14 ± 0.2

HGGSVWRRHSVFNAICISSS
amyloid nucleation score: 1.11 ± 0.18

HGSFAIMP
amyloid nucleation score: -0.529 ± 0.45

HGVMKISTCYFGGKESYYVE
amyloid nucleation score: -0.206 ± 0.76

HGYSVFYAVYAEGEMNIINA
amyloid nucleation score: -0.172 ± 1.1

HGYSWVVI
amyloid nucleation score: 0.019 ± 0.19

HHATKNFCTLFCLKSWGRFS
amyloid nucleation score: 7.767 ± 0.059

HHHLRQVLGESQYLSCLWIK
amyloid nucleation score: 0.388 ± 0.47

HHMKGAGPNNLFPGDPSGAR
amyloid nucleation score: 3.46 ± 0.065

HHNPGVWMKGSPCMWKIVQI
amyloid nucleation score: 4.76 ± 0.076

HHNTCKGM
amyloid nucleation score: 4.35 ± 0.062
